Assay results taken from US10772928B2, “Modulation and detection of a neuronal alternative splicing regulatory network for treatment and diagnosis of neurological disorders” (The Governing Council of the University of Toronto, priority 2014, dated 2020).

Target: T1, nSR100 (Mus musculus, UniProt Q8BKA3)
T1 construct: host or cells: mouse N2A cells
T1 sequence (Q8BKA3 1-608): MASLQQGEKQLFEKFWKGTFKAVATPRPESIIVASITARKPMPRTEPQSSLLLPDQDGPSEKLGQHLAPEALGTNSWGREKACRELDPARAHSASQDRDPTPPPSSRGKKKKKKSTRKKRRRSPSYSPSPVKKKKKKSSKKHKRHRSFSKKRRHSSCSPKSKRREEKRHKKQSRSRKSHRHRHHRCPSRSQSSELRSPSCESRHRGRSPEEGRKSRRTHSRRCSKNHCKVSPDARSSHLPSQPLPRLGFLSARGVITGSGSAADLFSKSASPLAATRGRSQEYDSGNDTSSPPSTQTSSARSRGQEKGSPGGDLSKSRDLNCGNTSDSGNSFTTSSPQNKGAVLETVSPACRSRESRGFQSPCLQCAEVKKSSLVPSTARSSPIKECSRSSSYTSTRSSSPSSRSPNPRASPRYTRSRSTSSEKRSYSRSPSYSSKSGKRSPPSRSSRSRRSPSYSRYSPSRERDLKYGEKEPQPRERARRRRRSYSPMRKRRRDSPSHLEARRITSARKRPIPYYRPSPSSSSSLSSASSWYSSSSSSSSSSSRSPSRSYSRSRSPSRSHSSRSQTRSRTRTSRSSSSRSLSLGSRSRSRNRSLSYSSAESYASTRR
Assay: AP-MS nSR100 interaction partners from mouse N2A cells (Table 5)
Type: binding
Settings: for AvgP (average of the SAINT scores) / MaxP (maximal SAINT score): bait Srrm4; for FoldChange between the prey Avg spectra of the bait and control purifications: bait Srrm4, 0.1 added to prevent division by 0; for AvgSpec (average number of spectra per replicate): bait Srrm4, 2 replicates; for Spectra (number of spectra for the prey in the purification of the bait): AP-MS; for SpecSum: bait Srrm4, sum of spectra over 2 replicates

[1] = bait Srrm4, biological replicate 1 (first number of the cell)
[2] = bait Srrm4, biological replicate 2 (second number of the cell)

Source text: By applying affinity purification coupled to mass-spectrometry (AP-MS), several interaction nSR100 partner proteins were detected that provide insight into mechanisms of post-translational regulation of nSR100 levels.

B1: U2af1 (protein, UniProt Q9D883 2-239, looked up)
Splicing factor U2AF 35 kDa …: AEYLASIFGTEKDKVNCSFYFKIGACRHGDRCSRLHNKPTFSQTIALLNIYRNPQNSSQSADGLRCAVSDVEMQEHYDEFFEEVFTEMEEKYGEVEEMNVCDNLGDHLVGNVYVKFRREEDAEKAVIDLNNRWFNGQPIHAELSPVTDFREACCRQYEMGECTRGGFCNFMHLKPISRELRRELYGRRRKKHRSRSRSRERRSRSRDRGRGGGGGGGGGGGRERDRRRSRDRERSGRF
AvgP (average of the SAINT scores): 1 | MaxP (maximal SAINT score): 1 | FoldChange between the prey Avg spectra of the bait and control purifications: 4.6 | AvgSpec (average number of spectra per replicate): 23 | Spectra (number of spectra for the prey in the purification of the bait) [1]: 22 | Spectra (number of spectra for the prey in the purification of the bait) [2]: 24 | SpecSum: 46

B2: Ccnb1 (protein, UniProt P24860 1-430, looked up)
G2/mitotic-specific cyclin-B1: MALRVTRNTKINAENKAKVSMAGAKRVPVTVTAASKPGLRPRTALGDIGNKVSEELQARVPLKREAKTLGTGKGTVKALPKPVEKVPVCEPEVELAEPEPEPELEHVREEKLSPEPILVDNPSPSPMETSGCAPAEEYLCQAFSDVILAVSDVDADDGADPNLCSEYVKDIYAYLRQLEEEQSVRPKYLQGREVTGNMRAILIDWLIQVQMKFRLLQETMYMTVSIIDRFMQNSCVPKKMLQLVGVTAMFIASKYEEMYPPEIGDFAFVTNNTYTKHQIRQMEMKILRVLNFSLGRPLPLHFLRRASKVGEVDVEQHTLAKYLMELSMLDYDMVHFAPSQIAAGAFCLALKILDNGEWTPTLQHYLSYSEDSLLPVMQHLAKNVVMVNCGLTKHMTVKNKYAASKHAKISTLAQLNCTLVQNLSKAVTKA
AvgP (average of the SAINT scores): 1 | MaxP (maximal SAINT score): 1 | FoldChange between the prey Avg spectra of the bait and control purifications: 300 | AvgSpec (average number of spectra per replicate): 30 | Spectra (number of spectra for the prey in the purification of the bait) [1]: 27 | Spectra (number of spectra for the prey in the purification of the bait) [2]: 33 | SpecSum: 60

B3: Luc7l2 (protein, UniProt Q7TNC4 1-392, looked up)
Putative RNA-binding protein …: MSAQAQMRAMLDQLMGTSRDGDTTRQRIKFSDDRVCKSHLLNCCPHDVLSGTRMDLGECLKVHDLALRADYEIASKEQDFFFELDAMDHLQSFIADCDRRTEVSKKRLAETQEEISAEVAAKAERVHELNEEIGKLLAKVEQLGAEGNVEESQKVMDEVEKARAKKREAEEVYRNSMPASSFQQQKLRVCEVCSAYLGLHDNDRRLADHFGGKLHLGFIEIREKLEELKRVVAEKQEKRNQERLKRREEREREEREKLRRSRSHSKNPKRSRSREHRRHRSRSMSRERKRRTRSKSREKRHRHRSRSSSRSRSRSHQRSRHSSRDRSRERSKRRSSKERFRDQDLASRDRDRSSRDRSPRDRDRKDKKRSYESANGRSEDRRSSEEREAGEI
AvgP (average of the SAINT scores): 1 | MaxP (maximal SAINT score): 1 | FoldChange between the prey Avg spectra of the bait and control purifications: 4.33 | AvgSpec (average number of spectra per replicate): 39 | Spectra (number of spectra for the prey in the purification of the bait) [1]: 35 | Spectra (number of spectra for the prey in the purification of the bait) [2]: 43 | SpecSum: 78

B4: Csnk2a1 (protein, UniProt Q60737 1-391, looked up)
Casein kinase II subunit alpha: MSGPVPSRARVYTDVNTHRPREYWDYESHVVEWGNQDDYQLVRKLGRGKYSEVFEAINITNNEKVVVKILKPVKKKKIKREIKILENLRGGPNIITLADIVKDPVSRTPALVFEHVNNTDFKQLYQTLTDYDIRFYMYEILKALDYCHSMGIMHRDVKPHNVMIDHEHRKLRLIDWGLAEFYHPGQEYNVRVASRYFKGPELLVDYQMYDYSLDMWSLGCMLASMIFRKEPFFHGHDNYDQLVRIAKVLGTEDLYDYIDKYNIELDPRFNDILGRHSRKRWERFVHSENQHLVSPEALDFLDKLLRYDHQSRLTAREAMEHPYFYTVVKDQARMSSTSMAGGSTPVSSANMMSGISSVPTPSPLGPLAGSPVIAAANSLGIPVPAAAGAQQ
AvgP (average of the SAINT scores): 1 | MaxP (maximal SAINT score): 1 | FoldChange between the prey Avg spectra of the bait and control purifications: 4.95 | AvgSpec (average number of spectra per replicate): 49.5 | Spectra (number of spectra for the prey in the purification of the bait) [1]: 44 | Spectra (number of spectra for the prey in the purification of the bait) [2]: 55 | SpecSum: 99

B5: Puf60 (protein, UniProt Q3UEB3 1-564, looked up)
Poly(U)-binding-splicing …: MATATIALQVNGQQGGGSEPAAAAAAAAAAVVAAGDKWKPPQGTESIKMENGQSTGTKLGLPPLTPEQQEALQKAKKYAMEQSIKSVLVKQTIAHQQQQLTNLQMAAVTMGFGDPLSPLQSMAAQRQRALAIMCRVYVGSIYYELGEDTIRQAFAPFGPIKSIDMSWDSVTMKHKGFAFVEYEVPEAAQLALEQMNSVMLGGRNIKVGRPSNIGQAQPIIDQLAEEARAFNRIYVASVHQDLSDDDIKSVFEAFGKIKSCTLARDPTTGKHKGYGFIEYEKAQSSQDAVSSMNLFDLGGQYLRVGKAVTPPMPLLTPATPGGLPPAAAVAAAAATAKITAQEAVAGAAVLGTLATPGLVSPALTLAQPLGALPQAVMAAQAPGVITGVTPARPPIPVTIPSVGVVNPILASPPTLGLLEPKKEKEEEELFPESERPEMLSEQEHMSISGSSARHMVMQKLLRKQESTVMVLRNMVDPKDIDDDLEGEVTEECGKFGAVNRVIIYQEKQGEEEDAEIIVKIFVEFSMASETHKAIQALNGRWFGGRKVVAEVYDQERFDNSDLSA
AvgP (average of the SAINT scores): 1 | MaxP (maximal SAINT score): 1 | FoldChange between the prey Avg spectra of the bait and control purifications: 5.07 | AvgSpec (average number of spectra per replicate): 73.5 | Spectra (number of spectra for the prey in the purification of the bait) [1]: 55 | Spectra (number of spectra for the prey in the purification of the bait) [2]: 92 | SpecSum: 147

B6: Ccnb2 (protein, UniProt P30276 1-398, looked up)
G2/mitotic-specific cyclin-B2: MALLRRPTVSSDLKNIDTEVIPKAKSHVTIRRAVLEEIGNKVRNRTTQVAKKPQNTKVPALPTKVTNVNKQPKPTASVKPVQMEALAPKDRPPAPEDVSMKEESLCQAFSDALLCKIEDIDNEDRENPQLCSDYVKDIYQYLRQLEVLQSINPHFLDGRDINGRMRAILVDWLVQVHSKFRLLQETLYMCIAIMDRFLQAQLVCRKKLQLVGITALLLASKYEEMFSPNIEDFVYITDNAYTSSQIREMETLILKELKFELGRPLPLHFLRRASKAGEVDVEQHTLAKYLMELTLVDYDMVHYHPSQVAAAASCLSQKVLGQGKWNLKQQYYTGYMESEVLEVMQHMAKNVVKVNDNRTKFIAVKNKYASSRLLKISTIPQLNSKIIKDLASPLLGSP
AvgP (average of the SAINT scores): 1 | MaxP (maximal SAINT score): 1 | FoldChange between the prey Avg spectra of the bait and control purifications: 60 | AvgSpec (average number of spectra per replicate): 6 | Spectra (number of spectra for the prey in the purification of the bait) [1]: 4 | Spectra (number of spectra for the prey in the purification of the bait) [2]: 8 | SpecSum: 12

B7: Prpf38b (protein, UniProt Q80SY5 2-542, looked up)
Pre-mRNA-splicing factor 38B: ANNSPALTGNSQPQHQAAAAVTQQQQQCGGGGGATKPAVSGKQGNVLPLWGNEKTMNLNPMILTNILSSPYFKVQLYELKTYHEVVDEIYFKVTHVEPWEKGSRKTAGQTGMCGGVRGVGTGGIVSTAFCLLYKLFTLKLTRKQVMGLITHTDSPYIRALGFMYIRYTQPPTDLWDWFESFLDDEEDLDVKAGGGCVMTIGEMLRSFLTKLEWFSTLFPRIPVPVQKNIDQQIKTRPRKIKKDGKEGIEEIDRHVERRRSRSPRRSLSPRRSPRRSRSRSHHREGHGSSSFDRELEREKERQRLEREAKEREKERRRSRSIDRGLDRRRSRSRERHRSRSRSRDRKGDRRDRDREREKENERGRRRDRDYDKERGSDRERDRERSRERSKEQRSRGDGEEKKHKEDKEDRRHRDDKKESKKKHSRSRSRERKHRSRSRNAGKRSRSRSKDKSSRHKNESKEKANKRSRSGSQGRTGSVEKRKREHSPSREKSRKRSRSQDRSHKREHNDSKDQSDRQDHQSSQSGEPESQEKEHKSKDETV
AvgP (average of the SAINT scores): 1 | MaxP (maximal SAINT score): 1 | FoldChange between the prey Avg spectra of the bait and control purifications: 60 | AvgSpec (average number of spectra per replicate): 6 | Spectra (number of spectra for the prey in the purification of the bait) [1]: 6|6 | Spectra (number of spectra for the prey in the purification of the bait) [2]: 6|6 | SpecSum: 12
